The values below come from paper PMC7592216.

The subject of this data set is eIF4E (eukaryotic translation initiation factor 4E, cap-binding protein) (wheat). In words: EMSA. To be noted: 10 mM HEPES pH 7.5, 20 mM KCl, 1 mM DTT, 3 mM MgCl2, 0.1 ug/ul yeast tRNA, 1 ug/ul BSA, 1 U/ul RNaseOUT, 20 mM Tris-HCl/10% glycerol; 25 min on ice; 10 fmol …. (In general: A gel shift assay detects complexes by their altered migration in electrophoresis.)

In general, Kd refers to the equilibrium constant for the complex coming apart.

Substance MTE (MCMV 3' CITE), uncapped displayed a Kd of 80 nM.
